Experimental data published in publication PMC7399497, “The Dual PDZ Domain from Postsynaptic Density Protein 95 Forms a Scaffold with Peptide Ligand” (Biophysical Journal, 2020).

Assays:
Assay in all cases: ITC; 5 mM RRESEI in the syringe, PDZ1-2, PDZ1 or PDZ2 in the cell at nominally 0.13 mM; 25°C; 20 mM Tris-HCl, 150 mM NaCl pH 8.5; single class of sites; Kd and N could not be refined independently
Conditions in all cases: both partners purified
PSD-95 PDZ2 domain = molecular target: T1, PSD-95 PDZ2 domain (human, UniProt P78352 154-249)
T1 construct: Gly-Pro left at the N-terminus after HRV 3C cleavage of the tag; PSD-95, human, PDZ2, residues 154-249 of UniProt P78352 (197-292 of P78352-2); Glutathione was not used in the purification of the single domains; source: E. coli BL21(DE3), purified (Ni-NTA, HRV 3C tag cleavage, negative Ni-NTA, Superdex 200 SEC); not shown: His6, N-terminal, cleaved

PSD-95 PDZ1 domain = molecular target: T2, PSD-95 PDZ1 domain (human, UniProt P78352 55-152)
T2 construct: Gly-Pro left at the N-terminus after HRV 3C cleavage of the tag; PSD-95, human, PDZ1, residues 55-152 of UniProt P78352 (98-195 of P78352-2); Glutathione was not used in the purification of the single domains; source: E. coli BL21(DE3), purified (Ni-NTA, HRV 3C tag cleavage, negative Ni-NTA, Superdex 200 SEC); not shown: His6, N-terminal, cleaved

[1] = molecular target: T3, PSD-95 PDZ1-2 (dual PDZ domain of postsynaptic density protein 95) (human, UniProt P78352 55-249)
T3 construct: Gly-Pro left at the N-terminus after HRV 3C cleavage of the tag; PSD-95 (disks large homolog 4, SAP-90), human, residues 55-249 of UniProt P78352 (98-292 of P78352-2); PDZ1, linker and PDZ2; No Cys residues in the construct; also called apo-PDZ1-2; PDZ1-2 double domain; source: E. coli BL21(DE3), purified (Ni-NTA, HRV 3C tag cleavage, negative Ni-NTA, Superdex 200 SEC); not shown: His6, …
T3 sequence (P78352 other isoform, or with tags, fused parts or gaps): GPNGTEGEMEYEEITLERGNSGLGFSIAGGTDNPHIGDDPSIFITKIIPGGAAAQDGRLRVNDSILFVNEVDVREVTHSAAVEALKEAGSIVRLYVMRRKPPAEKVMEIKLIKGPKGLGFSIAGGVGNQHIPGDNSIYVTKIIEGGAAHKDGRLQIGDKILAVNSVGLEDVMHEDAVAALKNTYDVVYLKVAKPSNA

T2 sequence (P78352 other isoform, or with tags, fused parts or gaps): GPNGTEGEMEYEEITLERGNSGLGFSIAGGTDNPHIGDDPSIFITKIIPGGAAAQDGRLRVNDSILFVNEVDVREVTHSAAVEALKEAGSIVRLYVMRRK
T1 sequence (P78352 other isoform, or with tags, fused parts or gaps): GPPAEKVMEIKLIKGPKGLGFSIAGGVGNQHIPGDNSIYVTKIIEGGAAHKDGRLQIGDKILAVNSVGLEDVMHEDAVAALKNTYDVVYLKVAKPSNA

B1: RRESEI peptide (last six residues, 422-427, of Kir2.1) (peptide)
peptide: RRESEI
notes: C-terminal six residues (422-427) of the inwardly rectifying potassium channel Kir2.1; also called RRESEI ligand; ligand peptide; source: synthetic peptide, 98% purity; bought: Peptide Protein Research
For B1, which Kd (PSD-95 PDZ2 domain) is on record?
Its Kd is 60 ± 2 µM.

What about the “stoichiometry N” value (PSD-95 PDZ2 domain) of the same binder?
Its value is 0.19 ± 0.06.

And the Kd (PSD-95 PDZ1 domain)?
The Kd was 6 ± 6 µM.

What about the “stoichiometry N” value (PSD-95 PDZ1 domain) of the same binder?
Its value is 0.61 ± 0.08.

What about the Kd [1] of the same binder?
The Kd was 90 ± 9 µM.

And the “stoichiometry N” value [1]?
The value was 0.2 ± 0.07.
